These results are taken from US20020103133A1.

This assay addresses MMPs of HT1080 cells. The assay can be described thus: cell-based or functional assay.

Non-standard residues stand in square brackets, D forms with d. Dox = doxorubicin conjugated to the C-terminal Leu; hPhe = N[C@@H](CCc1ccccc1)C(=O)O

Regarding Ac-PLG[hPhe]K(Me2)L-Dox [acetyl-P-L-G-Hof-(N,N-dimethyl-K)-L-Dox], the Fraction of L-Dox, 0 hours, minus MMP inhibitor turned out to be 0; the Fraction of L-Dox, 0 hours, plus MMP inhibitor came out at 0; the Fraction of L-Dox, 3 hours, minus MMP inhibitor was found to be 0.1; the Fraction of L-Dox, 3 hours, plus MMP inhibitor turned out to be 0.004. Besides, the Fraction of L-Dox, 5.5 hours, minus MMP inhibitor came to 0.2; the Fraction of L-Dox, 5.5 hours, plus MMP inhibitor turned out to be 0.01; the Fraction of L-Dox, 8 hours, minus MMP inhibitor was 0.46; the Fraction of L-Dox, 8 hours, plus MMP inhibitor came to 0.02.
